From IntAct's records for PubMed 17928862

B1: Charged multivesicular body protein 1b (Homo sapiens), Q7LBR1 (parent)
chain: MSNMEKHLFNLKFAAKELSRSAKKCDKEEKAEKAKIKKAIQKGNMEVARIHAENAIRQKNQAVNFLRMSARVDAVAARVQTAVTMGKVTKSMAGVVKSMDATLKTMNLEKISALMDKFEHQFETLDVQTQQMEDTMSSTTTLTTPQNQVDMLLQEMADEAGLDLNMELPQGQTGSVGTSVASAEQDELSQRLARLRDQV
partner: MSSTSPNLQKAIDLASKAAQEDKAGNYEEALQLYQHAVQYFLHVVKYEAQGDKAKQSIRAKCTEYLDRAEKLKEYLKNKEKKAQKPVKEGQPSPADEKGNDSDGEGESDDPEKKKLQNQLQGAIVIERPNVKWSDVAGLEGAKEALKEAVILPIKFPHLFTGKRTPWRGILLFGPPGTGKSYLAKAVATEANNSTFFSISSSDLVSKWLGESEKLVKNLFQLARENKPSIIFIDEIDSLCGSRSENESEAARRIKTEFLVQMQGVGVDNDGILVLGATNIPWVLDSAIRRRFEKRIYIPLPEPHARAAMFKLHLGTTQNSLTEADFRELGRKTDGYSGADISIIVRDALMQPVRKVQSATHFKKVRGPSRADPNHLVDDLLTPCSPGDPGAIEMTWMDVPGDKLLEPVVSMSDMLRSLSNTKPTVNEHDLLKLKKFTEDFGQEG
B2: Vacuolar protein sorting-associated protein 4A (Homo sapiens), Q9UN37 (parent)
chain: MTTSTLQKAIDLVTKATEEDKAKNYEEALRLYQHAVEYFLHAIKYEAHSDKAKESIRAKCVQYLDRAEKLKDYLRSKEKHGKKPVKENQSEGKGSDSDSEGDNPEKKKLQEQLMGAVVMEKPNIRWNDVAGLEGAKEALKEAVILPIKFPHLFTGKRTPWRGILLFGPPGTGKSYLAKAVATEANNSTFFSVSSSDLMSKWLGESEKLVKNLFELARQHKPSIIFIDEVDSLCGSRNENESEAARRIKTEFLVQMQGVGNNNDGTLVLGATNIPWVLDSAIRRRFEKRIYIPLPEEAARAQMFRLHLGSTPHNLTDANIHELARKTEGYSGADISIIVRDSLMQPVRKVQSATHFKKVCGPSRTNPSMMIDDLLTPCSPGDPGAMEMTWMDVPGDKLLEPVVCMSDMLRSLATTRPTVNADDLLKVKKFSEDFGQES
partner: B1 chain

Variants of: B1
Details: with vps4b_human VPS4B

| effect of a mutation on the interaction | Variant |
| --- | --- |
| decreasing interaction strength | L188A |
| decreasing interaction strength | L192A |

Variants of: B2
Details: with chm1b_human CHMP1B

| effect of a mutation on the interaction | Variant |
| --- | --- |
| decreasing interaction strength | L64A |
| disrupting interaction strength | L64D |
